B1: E3 ubiquitin-protein ligase ARIH2 (Homo sapiens), O95376 (parent)
chain: MSVDMNSQGSDSNEEDYDPNCEEEEEEEEDDPGDIEDYYVGVASDVEQQGADAFDPEEYQFTCLTYKESEGALNEHMTSLASVLKVSHSVAKLILVNFHWQVSEILDRYKSNSAQLLVEARVQPNPSKHVPTSHPPHHCAVCMQFVRKENLLSLACQHQFCRSCWEQHCSVLVKDGVGVGVSCMAQDCPLRTPEDFVFPLLPNEELREKYRRYLFRDYVESHYQLQLCPGADCPMVIRVQEPRARRVQCNRCNEVFCFKCRQMYHAPTDCATIRKWLTKCADDSETANYISAHTKDCPKCNICIEKNGGCNHMQCSKCKHDFCWMCLGDWKTHGSEYYECSRYKENPDIVNQSQQAQAREALKKYLFYFERWENHNKSLQLEAQTYQRIHEKIQERVMNNLGTWIDWQYLQNAAKLLAKCRYTLQYTYPYAYYMESGPRKKLFEYQQAQLEAEIENLSWKVERADSYDRGDLENQMHIAEQRRRTLLKDFHDT

Variants of: B1
Conditions: with ub2l3_human UBE2L3, P68036

Row | Variant | effect of a mutation on the interaction
1 | H158A | disrupting interaction

Variants of: B1
Conditions: with cul5_human CUL5, Q93034
Chain of cul5_human CUL5, Q93034 (Q93034 whole entry): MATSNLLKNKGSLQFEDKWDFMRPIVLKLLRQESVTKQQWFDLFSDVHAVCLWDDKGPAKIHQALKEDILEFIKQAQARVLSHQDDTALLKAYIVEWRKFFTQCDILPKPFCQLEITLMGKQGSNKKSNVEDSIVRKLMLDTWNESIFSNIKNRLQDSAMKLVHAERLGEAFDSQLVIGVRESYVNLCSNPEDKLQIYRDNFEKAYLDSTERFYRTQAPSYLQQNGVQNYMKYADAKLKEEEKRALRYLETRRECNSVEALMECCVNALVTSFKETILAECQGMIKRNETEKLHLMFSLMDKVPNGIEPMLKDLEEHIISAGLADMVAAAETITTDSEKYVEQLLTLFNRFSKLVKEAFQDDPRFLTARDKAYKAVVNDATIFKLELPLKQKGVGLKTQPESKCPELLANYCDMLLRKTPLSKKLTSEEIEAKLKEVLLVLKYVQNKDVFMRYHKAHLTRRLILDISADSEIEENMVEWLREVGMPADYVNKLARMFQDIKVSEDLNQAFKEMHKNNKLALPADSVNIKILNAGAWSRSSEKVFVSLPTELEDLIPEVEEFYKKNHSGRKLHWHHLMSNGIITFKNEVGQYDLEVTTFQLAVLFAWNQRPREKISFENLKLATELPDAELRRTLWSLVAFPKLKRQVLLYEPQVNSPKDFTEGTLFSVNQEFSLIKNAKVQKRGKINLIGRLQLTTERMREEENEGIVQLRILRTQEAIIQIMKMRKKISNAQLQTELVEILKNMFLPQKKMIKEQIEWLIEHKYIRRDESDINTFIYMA

Row | Variant | effect of a mutation on the interaction
2 | L84A;V86A;W100A | decreasing interaction

Variants of: B1
Conditions: with cul5_human CUL5, Q93034
Remark: another data set of the same source

Row | Variant | effect of a mutation on the interaction
3 | W100A | decreasing interaction

Variants of: B1
Conditions: with cul5_human CUL5, Q93034
Remark: another data set of the same source

Row | Variant | effect of a mutation on the interaction
4 | C310S | increasing interaction

Variants of: B1
Conditions: with cul5_human CUL5, Q93034
Remark: another data set of the same source

Row | Variant | effect of a mutation on the interaction
5 | C318A | increasing interaction

Variants of: B1
Conditions: with cul5_human CUL5, Q93034
Remark: another data set of the same source

Row | Variant | effect of a mutation on the interaction
6 | C310A | increasing interaction

Variants of: B1
Conditions: with cul5_human CUL5, Q93034
Remark: another data set of the same source

Row | Variant | effect of a mutation on the interaction
7 | C300A | increasing interaction
